Reference: patent publication US20070099268A1, “Chimeric HCN channels” (priority 2005, published 2007)
Several values for one entry are separate records, joined by “and”; a condition that tells them apart may be missing. Identical values can stand only once.

Tests used:
[1] = tested on: neonatal rat ventricular myocytes; assay: Voltage clamp of HCN2 or HCN4 plasmid (lipofectin) expressed in neonatal rat ventricular myocytes; assay type: cell-based
Text: cDNAs encoding mouse HCN2 (mHCN2, GenBank AJ225122) or HCN4 (mHCN4, GenBank deposit in progress) were subcloned into the pCI mammalian expression vector (Promega, Madison, Wis.). The resulting plasmids (pCI-mHCN2 or pCI-mHCN4) were used for neonatal rat ventricular myocyte transfection, as indicated. A separate plasmid (pEGFP-CI; Clontech, Palo Alto, Calif.) expressing the gene of enhanced green fluorescent protein (EGFP) as a visual marker for successful DNA transfer was included in all transfection experiments. For transfection, 2 μg of pCI-mHCN and […] of pEGFP-CI were first incubated in 200 μl of SFM containing 10 μl of lipofectin (Gibco Life Technologies, Rockville, Md.) at room temperature for 45 min. The mixture was then added to a 35-mm petri dish containing […] suspended in 0.8 ml of SFM. After overnight incubation at 37° C. in a CO2 incubator, the medium containing the plasmids and lipofectin was discarded and the dish was refilled with 2 ml of fresh SFM.
The whole-cell voltage clamp technique was employed to record native If or expressed IHCN2 or IHCN4. Action potentials were recorded in current clamp mode, again using a whole cell patch electrode. Experiments were carried out on cells superfused at 35° C. Extracellular solution contained (mM): NaCl, 140; NaOH, 2.3; MgCl2, 1; KCl, 5.4; CaCl2, 1.0; HEPES, 5; glucose, 10; pH 7.4. To record from myocytes expressing native currents (If), myocytes expressing HCN2 (IHCN2) or HCN4 (IHCN4), [K^+]0 was increased to 10 mM, and MnCl2 (2 mM) and BaCl2 (4 mM) added to the superfusate to eliminate calcium and inward rectifier (IK1) currents. In some experiments CsCl (4 mM) was used extracellularly to identify the pacemaker current as the Cs-sensitive current. The patch pipette solution included (mM): aspartic acid, 130; KOH, 146; NaCl, 10; CaCl2, 2; EGTA-KOH, 5; Mg-ATP, 2; HEPES-KOH, 10, pH 7.2. Where indicated, 10 μM cAMP was included in the pipette solution. A fast solution changing apparatus expedited the experimental protocols. The pipette resistance was typically 1-3 M. An Axopatch-200B amplifier and pClampS software (Axon Instruments) were used for acquisition and data analysis. […]
(§1) The activation relation of the native or expressed current can be determined from the steady-state I-V relation. In this case, the reversal potential (Vf) was separately determined from the fully activated I-V relation (Accili et al., 1991) and used to generate the activation relation (y=I/(gmax*(V−Vf)), where gmax is the maximal conductance). […] Tail currents were measured at a negative voltage (−125 mV) to avoid contamination by transient outward and other currents at less negative voltages. […]

[2] = tested on: cell-free patches from Xenopus oocytes; details: cited from earlier work
[3] = tested on: neonatal ventricular myocytes; assay: Voltage clamp (tail currents) of HCN2 expressed with AdHCN2 in neonatal ventricular myocytes; assay type: cell-based, rat
Experimental: For increased expression efficiency, an adenoviral construct for mHCN2 was prepared. Gene delivery and transfer procedures followed previously published methods (Ng et al., 2000; He et al., 1998). A DNA fragment (between EcoRI and XbaI restriction sites) that included mHCN2 DNA downstream of the CMV promoter was obtained from plasmid pTR-mHCN2 (Santoro and Tibbs, 1999) and subcloned into the shuttle vector pDC516 (AdMax™; Microbix Biosystems, Toronto, Canada). The resulting pDC516-mHCN2 shuttle plasmid was co-transfected with a 35.5 kb El-deleted Ad genomic plasmid pBHGΔE1,3FLP (AdMax™) into El-complementing HEK293 cells. […]
The whole-cell voltage clamp technique was employed to record native If or expressed IHCN2 or IHCN4. Action potentials were recorded in current clamp mode, again using a whole cell patch electrode. […]
as §1

[4] = tested on: adult ventricular myocytes; assay: Voltage clamp (tail currents) of HCN2 expressed with AdHCN2 in adult ventricular myocytes; assay type: cell-based, rat
Experimental: Freshly isolated adult ventricular myocytes were prepared using the procedure described by Kuznetsov et al. (1995). This entailed a Langendorff perfusion of collagenase, followed by trimming away of the atria. The remaining tissue was minced and dissociated in additional collagenase solution. The isolated myocytes were suspended in a SFM then plated on 9×22 mm glass coverslips at 0.5-1×10^3 cells/mm^2. Two to three hours later, after the myocytes had adhered to the coverslips, the adenoviral infection procedure was begun (see below).
For increased expression efficiency, an adenoviral construct for mHCN2 was prepared. Gene delivery and transfer procedures followed previously published methods (Ng et al., 2000; He et al., 1998). A DNA fragment (between EcoRI and XbaI restriction sites) that included mHCN2 DNA downstream of the CMV promoter was obtained from plasmid pTR-mHCN2 (Santoro and Tibbs, 1999) and subcloned into the shuttle vector pDC516 (AdMax™; Microbix Biosystems, Toronto, Canada). The resulting pDC516-mHCN2 shuttle plasmid was co-transfected with a 35.5 kb El-deleted Ad genomic plasmid pBHGΔE1,3FLP (AdMax™) into El-complementing HEK293 cells.
AdHCN2 infection of rat ventricular myocytes was carried out 2-3 h after the isolated cells were plated onto coverslips. The culture medium was removed from the dishes (35-mm) and the inoculum of 0.2-0.3 ml/dish was added containing AdHCN2. The value of m.o.i. (multiplicity of infection—the ratio of viral units to cells) was 15-100. The inoculum was dispersed over the cells every 20 min by gently tilting the dishes so that the cells were evenly exposed to the viral particles. The dishes were kept at 37° C. in a CO2 incubator during the adsorption period of 2 h, then the inoculum was discarded and the dishes were washed and refilled with the appropriate culture medium. The dishes remained in the incubator for 24-48 h before electrophysiological experiments were conducted.
The whole-cell voltage clamp technique was employed to record native If or expressed IHCN2 or IHCN4. Action potentials were recorded in current clamp mode, again using a whole cell patch electrode. Experiments were carried out on cells superfused at 35° C. Extracellular solution contained (mM): NaCl, 140; NaOH, 2.3; MgCl2, 1; KCl, 5.4; CaCl2, 1.0; HEPES, 5; glucose, 10; pH 7.4. To record from myocytes expressing native currents (If), myocytes expressing HCN2 (IHCN2) or HCN4 (IHCN4), [K^+]0 was increased to 10 mM, and MnCl2 (2 mM) and BaCl2 (4 mM) added to the superfusate to eliminate calcium and inward rectifier (IK1) currents. In some experiments CsCl (4 mM) was used extracellularly to identify the pacemaker current as the Cs-sensitive current. […]
The activation relation of the native or expressed current can be determined from the steady-state I-V relation. […]

[5] = tested on: mammalian expression systems; details: cited from earlier work
[6] = tested on: oocyte; details: cited from earlier work

B1: mHCN2: mouse HCN2 hyperpolarization-activated, cyclic nucleotide-gated channel, wild type (GenBank AJ225122) (protein)
chain: MDARGGGGRPGDSPGTTPAPGPPPPPPPPAPPQPQPPPAPPPNPTTPSHPESADEPGPRARLCSRDSACTPGAAKGGANGECGRGEPQCSPEGPARGPKVSFSCRGAASGPSAAEEAGSEEAGPAGEPRGSQASFLQRQFGALLQPGVNKFSLRMFGSQKAVEREQERVKSAGAWIIHPYSDFRFYWDFTMLLFMVGNLIIIPVGITFFKDETTAPWIVFNVVSDTFFLMDLVLNFRTGIVIEDNTEIILDPEKIKKKYLRTWFVVDFVSSIPVDYIFLIVEKGIDSEVYKTARALRIVRFTKILSLLRLLRLSRLIRYIHQWEEIFHMTYDLASAVMRICNLISMMLLLCHWDGCLQFLVPMLQDFPSDCWVSINNMVNHSWSELYSFALFKAMSHMLCIGYGRQAPESMTDIWLTMLSMIVGATCYAMFIGHATALIQSLDSSRRQYQEKYKQVEQYMSFHKLPADFRQKIHDYYEHRYQGKMFDEDSILGELNGPLREEIVNFNCRKLVASMPLFANADPNFVTAMLTKLKFEVFQPGDYIIREGTIGKKMYFIQHGVVSVLTKGNKEMKLSDGSYFGEICLLTRGRRTASVRADTYCRLYSLSVDNFNEVLEEYPMMRRAFETVAIDRLDRIGKKNSILLHKVQHDLSSGVFNNQENAIIQEIVKYDREMVQQAELGQRVGLFPPPPPPQVTSAIATLQQAVAMSFCPQVARPLVGPLALGSPRLVRRAPPGPLPPAASPGPPAASPPAAPSSPRAPRTSPYGVPGSPATRVGPALPARRLSRASRPLSASQPSLPHGVPAPSPAASARPASSSTPRLGPAPTARTAAPSPDRRDSASPGAASGLDPLDSARSRLSSNL
In the case of B1, the “slope factor (K)” value ([1]; lipofectin transfection) is listed as 7.7±0.7 mV, the “difference in midpoint of activation of HCN2 relative to HCN4” value ([1]; neonatal myocytes) is listed as 8.5 mV and 9 mV and the “shift of activation curve to more positive potentials by cAMP” value ([2]; binding of cAMP to the CNBD) is listed as 17 mV. The “steady-state activation curve more hyperpolarized than that of HCN1” value [2] was 20 mV, the “shift of voltage dependence by saturating cAMP, neonate” value ([3]; 10 μM cAMP in the pipette) was 17 mV and the “slope factor (K), neonatal myocytes” value ([3]; AdHCN2) was 9.8±0.6 mV. The “shift of voltage dependence by saturating cAMP, adult” value ([4]; 10 μM cAMP in the pipette) was 14 mV, the “slope factor (K), adult myocytes” value ([4]; AdHCN2) was 6.5±0.5 mV and the “negative shift of voltage dependence of activation/deactivation kinetics in the adult” value ([4]; adult vs neonatal) was 21 mV. For the same molecule, the “shift in the activation relation (midpoints), adult vs neonatal myocytes” value ([4]; negative in the adult) was 18 mV, the “midpoint of activation reported in other mammalian expression studies” value [5] was −83 to −97 mV and the midpoint of activation [6] was −78 mV.
